Experimental data from paper PMC4479559.

What was measured:
[1] = biological target: Clostridium oremlandii methionine sulfoxide reductase A, Sec-to-Cys form (Clostridium oremlandii (strain OhILAs)); test: non-reducing SDS-PAGE; series of MsrA concentrations, 2 h with 0.2 mM free methionine sulfoxide; dimer ratios by ImageJ, fitted with Prism 5
[2] = biological target: Clostridium oremlandii methionine sulfoxide reductase A, Sec-to-Cys form (Clostridium oremlandii (strain OhILAs)); test: non-reducing SDS-PAGE; time course, 84 μM MsrA with 0.2 mM free methionine sulfoxide; dimer ratios by ImageJ, fitted with Prism 5

## Clostridium oremlandii methionine sulfoxide reductase A, Sec-to-Cys form (enzyme)
[1]
  D1/2 (concentration of MsrA to reach half Dmax): 7.6 µM
  Dmax (maximal percent of dimer): 98%
[2]
  D1/2 (reaction time to reach half Dmax): 5.8 min
